# Patent publication US20210206855A1 (ADAGENE, published 2021)
# T1: recombinant human CTLA4-Fc (Sino Biological, 11159-H03H) (human, UniProt P16410 37-162)
# T1 construct: bought; whole entry named; Biotinylated in the yeast display assays; also called human CTLA4 fused with human FC fragment; biotinylated CTLA4-Fc; not shown: human Fc fragment
# T1 sequence (looked up): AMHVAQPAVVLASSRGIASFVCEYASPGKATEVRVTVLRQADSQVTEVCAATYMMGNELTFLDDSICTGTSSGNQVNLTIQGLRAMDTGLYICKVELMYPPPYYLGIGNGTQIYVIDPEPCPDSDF
# T2: recombinant human CTLA4 fused with human Fc and His tag (human, UniProt P16410 37-162, limits assumed, biotinylated where used in solution)
# T2 construct: also called biotinylated human CTLA4 fused with human FC and His tag; recombinant human CTLA4 proteins; not shown: human Fc and His tag
# T2 sequence (looked up): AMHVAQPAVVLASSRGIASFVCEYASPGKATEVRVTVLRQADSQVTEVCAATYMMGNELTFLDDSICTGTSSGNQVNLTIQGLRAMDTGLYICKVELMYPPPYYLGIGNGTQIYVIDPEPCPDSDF
# T3: full-length human CTLA4 on the cell surface (HEK293F transfectants); also activated human T cells, … (human, UniProt P16410 36-223)
# T3 construct: whole, on cells; used for every assay with human CTLA4 on cells; also called HEK293F/hCTLA-4; HEK293F/hCTLA4
# T3 sequence (looked up): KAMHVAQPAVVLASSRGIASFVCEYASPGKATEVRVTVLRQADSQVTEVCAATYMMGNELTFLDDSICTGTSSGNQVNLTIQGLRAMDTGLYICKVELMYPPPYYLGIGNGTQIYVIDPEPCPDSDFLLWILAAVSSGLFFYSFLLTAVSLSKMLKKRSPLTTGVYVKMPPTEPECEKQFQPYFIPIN
# T4: cynomolgus monkey CTLA4 antigen fused with human FC fragment (cynomolgus monkey, UniProt G7PL88 36-161, fused to a human Fc fragment that is not in the letters)
# T4 sequence: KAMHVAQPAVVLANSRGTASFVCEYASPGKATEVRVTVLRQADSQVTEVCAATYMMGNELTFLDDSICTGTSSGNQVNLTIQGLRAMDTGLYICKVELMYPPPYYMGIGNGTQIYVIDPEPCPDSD
# B1: TY22404 (antibody, IgG1, V domains shown)
# VH: EVQLVESGGGLVQPGGSLRLSCAASGYSISSGYHWSWIRQAPGKGLEWLARIDWDDDKYYSTSLKSRLTISRDNSKNTLYLQLNSLRAEDTAVYYCARSYVYFDYWGQGTLVTVSS
# VL: EVGSYPNPSSDCVPYYYACAYSGRSAGGGGSPLGLAGSGGSDIQLTQSPSSLSASVGDRVTITCRASQSVRGRFLAWYQQKPGKAPKLLIYDASNRATGIPSRFSGSGSGTDFTLTISSLQPEDFATYYCQQSSSWPPTFGQGTKVEIKR
# notes: also called masking peptide B13197
# B2: TY22404 (peptide as listed in Tables 26 and 29) (antibody, V domains shown)
# VH: EVQLVESGGGLVQPGGSLRLSCAASGYSISSGYHWSWIRQAPGKGLEWLARIDWDDDKYYSTSLKSRLTISRDNSKNTLYLQLNSLRAEDTAVYYCARSYVYFDYWGQGTLVTVSS
# VL: EVGSYPNPSSDCVPYYYACAYSGRSAGGGGTPLGLAGSGGSDIQLTQSPSSLSASVGDRVTITCRASQSVRGRFLAWYQQKPGKAPKLLIYDASNRATGIPSRFSGSGSGTDFTLTISSLQPEDFATYYCQQSSSWPPTFGQGTKVEIKR
# notes: kept apart from m68
# B3: TY21588 (antibody, V domains shown)
# VH: EVQLVESGGGLVQPGGSLRLSCAASGYSISSGYHWDWIRQAPGKGLEWVSGISGYGGSTYYADSVKGRFTISRDNSKNTLYLQLNSLRAEDTAVYYCARHSYYGSGNFDYWGQGTLVTVSS
# VL: DIQLTQSPSSLSASVGDRVTITCRASESVDFFGKSFLHWYQQKPGKAPKLLIYDASNLETGVPSRFSGSGSGTDFTLTISSLQPEDFATYYCQQSYSWPPTFGQGTKVEIKR
# B4: B15732 (Fab, V domains shown)
# VH: EVQLVESGGGLVQPGGSLRLSCAASGYSISSGYHWDWIRQAPGKGLEWVSGISGYGGSTYYADSVKGRFTISRDNSKNTLYLQLNSLRAEDTAVYYCARHSYYGSGNFDYWGQGTLVTVSS
# VL: DIQLTQSPSSLSASVGDRVTITCRASESVDFFGKSFLHWYQQKPGKAPKLLIYDASNLETGVPSRFSGSGSGTDFTLTISSLQPEDFATYYCQQSYSWPPTFGQGTKVEIKR
# notes: Fab hit from E. coli
# Experiments:
# [1] = target: T1, recombinant human CTLA4-Fc (Sino …); assay: ELISA, coated human CTLA4-Fc, batch 1; Data Batch 1
# Method: (§1) Plates were blocked with PBS supplemented with 3% non-fat milk at 37° C. for 1 hour. After washing, 100 μL of 3-fold serial dilutions of antibodies were added to each well. After incubation at 37° C. for 1 hour, plates were washed four times, and […] conjugated anti-human IgG (Fab specific) (1:6000 dilution) was added to each well. Plates were incubated at 37° C. for 1 hour, washed four times, and then 50 μL TMB substrate solution was added to each well, and the plate was incubated at room temperature. […] The EC₅₀ was evaluated by fitting the ELISA data using the asymmetrical sigmoidal (five-parameter logistic equation) model of GraphPad Prism 6 software.
# [2] = target: T1, recombinant human CTLA4-Fc (Sino …); assay: ELISA, coated human CTLA4-Fc, batch 2
# Method: as §1
# [3] = target: T1, recombinant human CTLA4-Fc (Sino …); assay: ELISA, coated human CTLA4-Fc
# Method: as §1
# The purified activatable antibodies were treated with the proteases which recognize the cleavage sequences, and were then tested to determine whether removal of the masking peptide restored their activity.
# [4] = target: T1, recombinant human CTLA4-Fc (Sino …); assay: ELISA, coated human CTLA4-Fc, batch 1
# Method: as §1
# [5] = target: T1, recombinant human CTLA4-Fc (Sino …); assay: ELISA, coated human CTLA4-Fc (as Example 8)
# Method: as §1
# [6] = target: T1, recombinant human CTLA4-Fc (Sino …); assay: ELISA, coated human CTLA4-Fc (as Example 8); remark: listed apart in the source
# Method: as §1
# [7] = target: T1, recombinant human CTLA4-Fc (Sino …); assay: ELISA, coated human CTLA4-Fc (as Example 8); remark: listed apart in the source
# Method: as §1
# [8] = target: T2, recombinant human CTLA4 fused with …; assay: competition ELISA: plate-bound human CTLA4-Fc-His, biotinylated human CD80 as the blocked ligand, HRP-neutravidin
# Method: Plates were blocked with PBS supplemented with 2% (w/v) skim milk at 37° C. for 1 hour. […] Plates were washed four times, and 100 μL HRP-neutravidin (1:1000) was added to each well and incubated at 37° C. for 1 hour. Plates were washed as previously described, and 50 μL TMB substrate solution was added and incubated at room temperature for 5 minutes before the reaction was stopped by 50 μL sulfate acid (2M).
# [9] = target: T5, full-length mouse CTLA4 on the cell surface (HEK293F transfectants; also activated mouse T cells) (mouse, UniProt P09793 36-223); assay: flow cytometry on HEK293F cells transiently expressing full-length mouse CTLA4; Alexa Fluor 647 anti-human Fc
# T5 construct: whole, on cells; also called mouse cell-surface exposed mouse CTLA4
# Method: (§2) The affinities of the antibodies were also assessed against human and mouse CTLA4 transiently expressed on the surface of HEK293F cells (FIG. 2). Briefly, HEK293F cells were transfected with a plasmid expressing full-length human, monkey or mouse CTLA4 from a bicistronic IRES vector also encoding EGFP, and EGFP expression was used to identify the transfected cells. After 48 hours, the mammalian cell suspension (2×10⁵/well) was transferred to an Eppendorf tube, centrifuged, the supernatant was discarded, the cells were resuspended with 1 mL PBSA (to a density is 4×10⁶ cells/mL), and added to a 96 well plate. […] The cells were then washed once prior to analysis by flow cytometry (Beckman® CytoFlex).
# [10] = target: T3, full-length human CTLA4 on the cell …; assay: flow cytometry on HEK293F cells transiently expressing full-length human CTLA4; Alexa Fluor 647 anti-human Fc
# Method: as §2
# [11] = target: T6, mouse CTLA4 antigen fused with human FC fragment (mouse, UniProt P09793 36-162, limits assumed); assay: ELISA, captured Fab
# T6 construct: not shown: human Fc fragment
# [12] = target: T4, cynomolgus monkey CTLA4 antigen fused …; assay: ELISA, captured Fab
# [13] = target: T1, recombinant human CTLA4-Fc (Sino …); assay: ELISA, captured Fab
binder,measurement,setting,value
B1,EC50,[1],178 nM
same,EC50,[2],128 nM
same,LogEC50,[2],-6.89 log M
same,LogEC50,[3],-7.01 log M
same,EC50,[4],178 nM
same,LogEC50,[4],-6.75 log M
B2,EC50,[5],117 nM
same,EC50,[6],122 nM
same,EC50,[7],68.4 nM
B3,binding result,[8],binds
same,binding result,[9],binds
same,binding result,[10],binds
B4,binding result,[11],binds
same,binding result,[12],binds
same,binding result,[13],binds
